In patent publication US7402417B2, “P450 oxygenases and methods of use” (Washington State University Research Foundation, priority 2003, dated 2008) one finds Km data, which are given here for two proteins.

Substrate in data set [1]: [H][C@]12CCC(C)=C(CC[C@]3(C)CCC=C(C)[C@@]3([H])C1)C2(C)C
Description: Kinetic evaluation of taxadiene isomers, average of recombinant and T. media microsomes (FIG. 4). Format: biochemical, Taxus. The following applies: other: average of recombinant (Sf9) and T. media microsomes; substrate 1 to 500 μM. As to the method: (§1) Taxa-4(20),11(12)-diene (◯) and taxa-4(5),11(12)-diene (●) were evaluated with microsomes from S. formgiperda cells enriched with 50 pmol recombinant taxoid 5α-hydroxylase (A), and with microsomes from T. media suspension cells containing about 50 pmol of total native cytochrome P450 (B). Substrate Concentration range was varied from 1 to 500 μM in all cases.

Substrate in data set [2]: C=C1CCC[C@@]2(C)CCC3=C(C)CC[C@@H](C[C@H]12)C3(C)C
The description is as above. The following applies: other: average of recombinant (Sf9) and T. media microsomes; substrate 1 to 500 μM. In kind it is biochemical, Taxus. As to the method: as §1

Substrate in data set [3]: [H][C@]12CCC(C)=C(CC[C@]3(C)CCC=C(C)[C@@]3([H])C1)C2(C)C
Description: Kinetic evaluation with Sf9 microsomes enriched in recombinant 5α-hydroxylase (radio-HPLC, Michaelis-Menten). Format: biochemical, Taxus cuspidata. Particulars: other: Sf9 microsomes, recombinant enzyme, 200 μM NADPH plus regenerating system; pH 7.5. As to the method: (§2) Kinetic constants for both isomers were next evaluated (at a saturating 200 μM concentration of NADPH plus regenerating system; Shimada and Yamazai, Meth. Mol. Biol., 107:85-93, 1998). The isolated microsomes were resuspended in 50 mM Hepes, pH 7.5, containing 1 mM DTT and 5% (v/v) glycerol, and the 1 ml reactions (˜600 μg protein, 50 μM substrate dissolved in DMSO, and the requisite cofactors (e.g., NADPH plus regenerating system) were run as described previously, with the identical protocols for product analysis (Jennewein et al., Proc. Natl. Acad. Sci. USA, 98:13595-13600, 2001). DMSO was without influence on the reaction. For kinetic evaluation, following the establishment of linear reaction conditions in protein concentration and time, the response to substrate concentration was plotted by the Michaelis-Menten method (Sigmaplot 7.0) using the calibrated radio-HPLC protocol for product determination Data from three independent experiments were pooled and the line of best fit taken (R^2>0.99).

Substrate in data set [4]: C=C1CCC[C@@]2(C)CCC3=C(C)CC[C@@H](C[C@H]12)C3(C)C
The description is as above. In kind it is biochemical, Taxus cuspidata. The following applies: other: Sf9 microsomes, recombinant enzyme, 200 μM NADPH plus regenerating system; pH 7.5. The method, then: as §2

B1: taxoid 5α-hydroxylase (Taxus cuspidata) (protein)
chain: MDALYKSTVAKFNEVTQLDCSTESFSIALSAIAGILLLLLLFRSKRHSSLKLPPGKLGIPFIGESFIFLRALRSNSLEQFFDERVKKFGLVFKTSLIGHPTVVLCGPAGNRLILSNEEKLVQMSWPAQFMKLMGENSVATRRGEDHIVMRSALAGFFGPGALQSYIGKMNTEIQSHINEKWKGKDEVNVLPLVRELVFNISAILFFNIYDKQEQDRLHKLLETILVGSFALPIDLPGFGFHRALQGRAKLNKIMLSLIKKRKEDLQSGSATATQDLLSVLLTFRDDKGTPLTNDEILDNFSSLLHASYDTTTSPMALIFKLLSSNPECYQKVVQEQLEILSNKEEGEEITWKDLKAMKYTWQVAQETLRMFPPVFGTFRKAITDIQYDGYTIPKGWKLLWTTYSTHPKDLYFNEPEKFMPSRFDQEGKHVAPYTFLPFGGGQRSCVGWEFSKMEILLFVHHFVKTFSSYTPVDPDEKISGDPLPPLPSKGFSIKLFPRP
Take B1: the Km in data set [1] came to 36 µM; in data set [2], 21.5 µM.

B2: recombinant taxoid 5α-hydroxylase (clone S1) (Taxus cuspidata) (protein)
chain: MDALYKSTVAKFNEVTQLDCSTESFSIALSAIAGILLLLLLFRSKRHSSLKLPPGKLGIPFIGESFIFLRALRSNSLEQFFDERVKKFGLVFKTSLIGHPTVVLCGPAGNRLILSNEEKLVQMSWPAQFMKLMGENSVATRRGEDHIVMRSALAGFFGPGALQSYIGKMNTEIQSHINEKWKGKDEVNVLPLVRELVFNISAILFFNIYDKQEQDRLHKLLETILVGSFALPIDLPGFGFHRALQGRAKLNKIMLSLIKKRKEDLQSGSATATQDLLSVLLTFRDDKGTPLTNDEILDNFSSLLHASYDTTTSPMALIFKLLSSNPECYQKVVQEQLEILSNKEEGEEITWKDLKAMKYTWQVAQETLRMFPPVFGTFRKAITDIQYDGYTIPKGWKLLWTTYSTHPKDLYFNEPEKFMPSRFDQEGKHVAPYTFLPFGGGQRSCVGWEFSKMEILLFVHHFVKTFSSYTPVDPDEKISGDPLPPLPSKGFSIKLFPETIVN
notes: the S1 ORF was amplified using Pfu DNA polymerase and gene-specific primers containing a BamHI site immediately upstream of the start codon; made in house; host or cells: Spodoptera frugiperda Sf9 cells (baculovirus, pFastBac1); microsomal membranes
On to B2, for which the Michaelis-Menten constant (Km) in data set [3] is 24 ± 2.5 µM; in data set [4] it was 16 ± 3.2 µM.

In general, Km refers to the concentration of substrate that gives half-maximal velocity.
